The record followed here is patent US20180030137A1 (ADURO BIOTECH HOLDINGS EUROPE B V, published 2018).

The target of assay [1] is T1, Macaca fascicularis PD-1 (Swiss-Prot entry B0LAJ3), full length, on cells (Macaca fascicularis, UniProt Q15116 25-288 (human entry)).
T1 construct: Full length open reading frame transiently expressed on CHO-K1 cells; also endogenous PD-1 on CD3/CD28-stimulated cynomolgus PBMCs; No signal peptide limits are stated for the cynomolgus entry; also called cyno PD-1; cynomolgus PD-1
T1 chain: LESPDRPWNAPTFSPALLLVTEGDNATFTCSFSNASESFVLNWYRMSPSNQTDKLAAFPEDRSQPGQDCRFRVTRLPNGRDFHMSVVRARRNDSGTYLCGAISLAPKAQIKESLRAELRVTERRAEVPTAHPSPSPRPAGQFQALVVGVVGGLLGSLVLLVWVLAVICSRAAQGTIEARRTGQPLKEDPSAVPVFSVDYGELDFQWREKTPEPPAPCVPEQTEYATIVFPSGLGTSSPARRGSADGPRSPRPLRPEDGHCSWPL
The experiment in a line: flow cytometry, Binding (%), on anti-CD3/anti-CD28 stimulated cynomolgus PBMCs, animal #2. How it is done: (§1) To this end Macacaca fascicularis (cynomolgus) blood was diluted 1:1 with PBS and added to 50 ml tubes containing 13 ml Lymphoprep 95%/PBS 5%. Cells were centrifuged for 30′ at 450 g and 20° C. without brake. Next, plasma was removed by aspiration and PBMCs were recovered from the plasma/Ficoll interface. PBMCs were washed twice times in PBS. Cells were frozen in liquid nitrogen and retrieved from the freezer on the day of the experiment. Since endogenous expression of PD-1 on resting T cells is low thus the thawed PBMCs were stimulated with αCD3/αCD28 coated beads (Gibco) for 48 hours.
A general note: Flow cytometry measures light scatter and fluorescence of single cells or particles in a stream.

The target of assay [2] is T2, Human PD-1 (Swiss-Prot entry Q15116), full length, on cells (human, UniProt Q15116 21-288).
T2 construct: Full length open reading frame of hPD-1 stably expressed on CHO-K1 cells; also endogenous PD-1 on CD3/CD28-stimulated human CD3+ T cells and PD-1 on transfected Jurkat cells; also called hPD-1; hPDCD1
The experiment in a line: CELISA on CHO-K1.hPDCD1 cells; blocking of biotinylated hPD-L1 Fc. The procedure: (§2) To further characterize these mutant hPD-1 antibodies they were tested for binding to hPD-1 in CELISA format using CHO-K1 cells (American Type Culture Collection, Manassas, Va.), stably transfected with cDNA encoding the full length open reading frame of hPDCD1 (hPD-1), subcloned into the pCI-neo vector (Promega). Parental CHO-K1 or CHO-K1.hPDCD1 cells were seeded in culture medium (DMEM-F12 (Gibco) with 10% Fetal Bovine Serum (Hyclone) and Pen/Strep (Gibco)) in tissue culture plates and incubated for 48 hours at 37° C. Subsequently culture medium was removed and cells were incubated for 1 hour at 37° C. with the mutant hPD-1 antibodies (10 μg/ml (=66 nM) and dilutions thereof). Next, cells were washed with Phosphate-Buffered Saline/0.05% Tween (PBST) and incubated for 1 hour at 37° C. with Goat-anti-human IgG-HRP (Southern Biotech). Subsequently, cells were washed 3 times with PBST and anti-hPD1 immunoreactivity was visualized with 100 al TMB Stabilized Chromagen (Invitrogen). Reactions were stopped with 100 al 0.5 M H2SO4 and absorbances were read at 450 and 610 nm. […] Blockade of hPD-L1 binding by the mutant hPD-1 antibodies was tested in CELISA format. […] Reactions were stopped with 100 al 0.5 M H2SO4 and absorbances were read at 450 and 610 nm. Calculated IC50 values in Table 12 for the blockade of hPD-L1 represent the concentration at which half of the inhibition is observed.

Assay [3] deals with T2, Human PD-1 (Swiss-Prot entry Q15116), …. The description is as above. The procedure:
as §2, with “format. Parental CHO-K1 or CHO-K1.hPDCD1 cells were seeded in tissue culture plates and incubated for 72 hours at 37° C. in culture medium. Subsequently culture medium was removed and cells were incubated for 1 hour with the mutant hPD-1 antibodies (10 μg/ml (=66 nM) and dilutions thereof) at 37° C. […] Cells were then washed three times with PBST followed by addition of Streptavidin-HRP conjugate on the cells, which was incubated for 1 hour at 37° C.” for “format.”
The source holds these as a separate data set.

Assay [4] deals with T1, Macaca fascicularis PD-1 (Swiss-Prot …). The experiment in a line: CELISA on CHO-K1 cells transiently transfected with cyno PD-1. How it is done: Parental CHO-K1 or CHO-K1.cynoPD1 cells were seeded in tissue culture plates and incubated for 48 hours at 37° C. Subsequently culture medium was removed and cells were incubated for 1 hour with purified hPD-1 antibodies (10 μg/ml (=66 nM) and dilutions thereof) at 37° C. Next, cells were washed with PBST and incubated for 1 hour at 37° C. with Goat-anti-human (Jackson Immuno Research). Subsequently, cells were washed 3 times with PBST and anti-hPD1 immunoreactivity was visualized with 100 μL TMB Stabilized Chromagen (Invitrogen). Reactions were stopped with 100 μL 0.5 M H2SO4 and absorbances were read at 450 and 610 nm.

Assay [5] deals with T2, Human PD-1 (Swiss-Prot entry Q15116), …. Kind of assay: CELISA on CHO-K1.hPDCD1 cells. The procedure: as §2, with “format. Parental CHO-K1 or CHO-K1.hPDCD1 cells were seeded in tissue culture plates and incubated for 72 hours at 37° C. in culture medium. Subsequently culture medium was removed and cells were incubated for 1 hour with the mutant hPD-1 antibodies (10 μg/ml (=66 nM) and dilutions thereof) at 37° C. […] Cells were then washed three times with PBST followed by addition of Streptavidin-HRP conjugate on the cells, which was incubated for 1 hour at 37° C.” for “format.”

Assay [6] shares this target. Kind of assay: flow cytometry, Binding (%), on anti-CD3/anti-CD28 stimulated human CD3+ T cells; donor #1 or #3, same marker in the legend. How it is done:
(§3) Cells were stored in liquid nitrogen and retrieved from the freezer on the day of the experiment. Since endogenous expression of hPD-1 on resting T cells is low, the thawed CD3+ T cells were stimulated with αCD3/αCD28 coated beads (Gibco) for 48 hours.

Assay [7] has the same target. Kind of assay: flow cytometry, Binding (%), on anti-CD3/anti-CD28 stimulated human CD3+ T cells, donor #2. The procedure:
as §3

Assay [8] concerns the target T1, Macaca fascicularis PD-1 (Swiss-Prot …). Kind of assay: flow cytometry on CD3/CD28-stimulated cynomolgus PBMCs, three animals. How it is done:
as §1

Assay [9] addresses T2, Human PD-1 (Swiss-Prot entry Q15116), …. The experiment in a line: flow cytometry on CD3/CD28-stimulated human CD3+ T cells, three donors; CD3/CD28 stimulated human T cells, three donors. How it is done: as §3

Values joined by “and” are separate entries in the source; they are usually repeats but may differ in a detail not shown here. Equal values may be shown once. Read-outs that look alike come from different tables or passages of the source.

T2 sequence (Q15116 21-288, one chain of several): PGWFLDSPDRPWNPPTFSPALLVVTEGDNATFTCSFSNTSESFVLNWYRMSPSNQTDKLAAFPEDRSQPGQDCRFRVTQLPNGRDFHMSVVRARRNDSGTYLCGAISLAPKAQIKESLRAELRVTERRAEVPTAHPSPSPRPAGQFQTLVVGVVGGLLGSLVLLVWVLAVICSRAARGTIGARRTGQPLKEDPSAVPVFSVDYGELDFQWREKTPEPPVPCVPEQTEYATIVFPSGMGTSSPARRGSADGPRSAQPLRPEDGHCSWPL

B1: hPD1.29H5L4 (antibody, V domains shown)
VH: EVQLVQSGAEVKKPGASVKVSCKASGYIFTTYYIHWVKQAPGKGLEWIGWIFPGDVSTQYNEKFQDKATITVDKSASTAYMQLSSLRSEDTAVYYCTREAYDYAVYWGQGTLVTVSS
VL: DIQMTQAPSSLSASVGDRVTITCKASQNVDTNVAWFQQKPGKAPKSLIFSASYRYSGVPSRFSGSGSGTDFTLTISSLQPEDFATYYCQQYNNYPFTFGGGTKLEIK
notes: Expressed as human IgG4, kappa with the stabilizing S241P (Kabat) hinge mutation in HEK293 cells; also called humanized PD-1 antibody hPD1.29H5L4
As a reminder, the EC50 (read off the curve) is the concentration needed to bring the measured effect to its halfway point. In general, IC50 refers to the point on the concentration scale where inhibition reaches its midpoint. A low value points to higher potency. In general, EC50 refers to the midpoint of the concentration-response curve. Low readings indicate a more potent agent, high ones a less potent agent. B1: the “EC50 (read off the curve)” value was around 2000 pM in [1]; ~200 pM and ~300 pM in assay [6]; around 200 pM in [7]. For the same molecule, the IC50 stood at 700 pM in [2] and 1300 pM in assay [3]. Besides, the EC50 in [4] was 450 pM; in assay [5], 300 pM; in assay [8], 1600 pM; in assay [9], 270 pM.
